According to patent publication US20100239597A1 (NORTHWESTERN UNIVERSITY, published 2010):
Changes are numbered by the printed parent chain.

Columns and labels:
[1] = molecular target: T1, Aβ40 monomer (UniProt P05067 672-711); test: titration ELISA on Aβ40 monomer, A450 nm; Hu20C2A3 produced in CHO
T1 construct: domain: Aβ(1-40); also called Aβ monomer; amyloid beta (1-40) peptide

[2] = molecular target: T1, Aβ40 monomer; test: titration ELISA on Aβ40 monomer, A450 nm; Hu20C2A3 produced in Pichia
[3] = molecular target: T2, Aβ-derived diffusible ligands (ADDLs) (UniProt P05067 672-713); test: titration ELISA on captured ADDL, A450 nm; Hu20C2A3 produced in CHO
T2 construct: domain: Aβ1-42
Description: (§1) Affinity maturation was carried out to improve affinity and improve preferential binding to ADDL. To evaluate ADDL binding affinity of the humanized antibodies, BIACORE™ and titration ELISAs were conducted as disclosed herein. Briefly, Streptavidin-coated, 96-well microtiter plates (Sigma, St. Louis, Mo.) were coated with 10% biotinylated ADDL antigen (1 μM). A series of 2-fold dilutions of purified antibody, starting at 500 ng/mL was added to the ADDL captured plates and the plates were incubated for 2 hours at 25° C. After washing five times with PBS solution using a plate washer (Bio-Tek, Winooski, Va.), polyclonal goat anti-human kappa light chain antibody (Biomeda, Foster City, Calif.) was added at a 1/2000 dilution in 3% non-fat milk blocker and incubated at room temperature for 1 hour. A rabbit anti-goat IgG (H+L) HRP-conjugated (Bethyl Laboratories, Inc., Montgomery, Tex.) detection antibody was then added at a 1/2000 dilution in blocking solution and incubated for 1 hour at room temperature. After washing with PBS, HRP substrate, 3,3′,5′5-tetramethylbenzidine (ready-to-use TMB; Sigma, St. Louis, Mo.) was added and the reaction was stopped after 10 minutes with 0.5 N H₂SO₄. Absorbance at wavelength of 450 nm was read in a plate reader (model VICTOR V; Perkin Elmer, Boston, Mass.) and data were processed using EXCEL® work sheet.

[4] = molecular target: T2, Aβ-derived diffusible ligands (ADDLs); test: titration ELISA on captured ADDL, A450 nm; Hu20C2A3 produced in Pichia
Description: as §1

[5] = molecular target: T3, biotinylated ADDL (bADDL) (UniProt P05067 672-713, N-terminal biotin); test: BIACORE, Fab against bADDL
T3 construct: domain: Aβ1-42; Panning and ELISA speak of 10% biotinylated ADDL; also called bADDLs; high molecular weight bADDL

[6] = molecular target: T4, biotin-Aβ1-20 (UniProt P05067 672-691, biotin (site not stated)); test: BIACORE, Fab against biotinylated-Aβ1-20
T4 construct: domain: Aβ1-20; Monomeric Aβ fragment used as BIACORE antigen; also called biotinylated-Aβ1-20
T4 peptide (looked up): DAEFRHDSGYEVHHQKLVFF

[7] = molecular target: T3, biotinylated ADDL (bADDL); test: BIACORE, bADDL as antigen; Fab
[8] = molecular target: T3, biotinylated ADDL (bADDL); test: BIACORE, bADDL as antigen; IgG1#2
[9] = molecular target: T3, biotinylated ADDL (bADDL); test: BIACORE, bADDL as antigen; IgG1#1

B1: Hu20C2A3 (veneered version of clone A3, IgG2m4 isotype) (antibody, V domains shown)
VH: QVTLKESGPGLLKPTQTLTLTCTLSGFSLSTSGMGVGWFRQPPGKGLEWLAHIWWDDDKSYNPSLKSRLTISKDTSKNQVVLTITNVDPVDTATYYCARRQLGTRGTDAMDYWGQGTTVTVSS
VL: DVVMTQTPLSLPVTPGQPASISCRSSQSILHSNGNTYLEWYLQKPGQSPQLLIYKVSNRFSGVPDRFSGSGSGTDFTLKISRVEAEDVGVYYCLQTTRVPLTFGQGTKLEIKR
notes: To be checked against the listing; also called Hu20C2A3 IgG2m4
B1 was tested, and the “EC50 (read off the curve)” value [1] was ~40 ng/mL, the “EC50 (read off the curve)” value [2] was ~40 ng/mL and the “EC50 (read off the curve)” value [3] was ~8 ng/mL. For the same binder, the “EC50 (read off the curve)” value [4] was ~9 ng/mL.

B2: 4a-C9 Fab (Fab, V domains shown)
VH: B1 VH with G10A, L12V, F39I, G46A, I84M, V87M, T104Q, R105A, T107H
VL: B1 VL with T7S, Q17E
Work on B2 yielded a Kd [5] of 8.43 nM and a Kd [6] of 2.46 nM.

B3: 4a-D5 Fab (Fab, V domains shown)
VH: B1 VH with G10A, L12V, F39I, G46A, I84M, V87M, T104D, R105N, G106V, T107A
VL: B1 VL with T7S, Q17E
B3 showed a Kd [5] of 1.17 nM and a Kd [6] of 3.91 nM.

B4: 4a-E10 Fab (Fab, V domains shown)
VH: B1 VH with G10A, L12V, F39I, G46A, I84M, V87M, T104F, R105Q, G106S
VL: B1 VL with T7S, Q17E
B4 was tested, and the Kd [5] was 18.5 nM and the Kd [6] was 3.6 nM.

B5: 4b-D4 Fab (Fab, V domains shown)
VH: B1 VH with G10A, L12V, F39I, G46A, I84M, V87M, T104M, R105A, G106T, T107P
VL: B1 VL with T7S, Q17E
B5 gave a Kd [5] of 18.6 nM and a Kd [6] of 4.87 nM.

B6: 4b-B10 Fab (Fab, V domains shown)
VH: B1 VH with G10A, L12V, F39I, G46A, I84M, V87M, T104A, R105H, G106W, T107L
VL: B1 VL with T7S, Q17E
With B6 the Kd [5] was 62.8 nM and the Kd [6] was 7.43 nM.

B7: 4b-A12 Fab (Fab, V domains shown)
VH: B1 VH with G10A, L12V, F39I, G46A, I84M, V87M, T104P, R105E, G106P, T107Q
VL: B1 VL with T7S, Q17E
Binder B7 has a Kd [5] of 154 nM and a Kd [6] of 10.1 nM.

B8: 20C2-1A Fab (Fab, V domains shown)
VH: B1 VH with G10A, L12V, L24F, F39I, G46A, I84M, V87M, T104L, G106S, T107I
VL: B1 VL with T7S, Q17E, L94F, T96A, T97S
B8 was tested, and the Kd [7] was 85 nM.

B9: 20C2-7A Fab (Fab, V domains shown)
VH: B1 VH with G10A, L12V, L24F, F39I, G46A, I84M, V87M, T104L, G106S, T107I
VL: B1 VL with T7S, Q17E, Q95N, T96S, R98T
With B9 the Kd [7] was 435 nM.

B10: 20C2-8A Fab (Fab, V domains shown)
VH: B1 VH with G10A, L12V, L24F, F39I, G46A, I84M, V87M, T104L, G106S, T107I
VL: B1 VL with T7S, Q17E
B10 gave a Kd [7] of 13 nM.

B11: 20C2-9A Fab (Fab, V domains shown)
VH: B1 VH with G10A, L12V, L24F, F39I, G46A, I84M, V87M, T104L, G106S, T107I
VL: B1 VL with T7S, Q17E, L94V, T97S, R98L
B11 was tested, and the Kd [7] was 40 nM.

B12: 20C2-9A IgG1 (antibody, V domains shown)
VH: B1 VH with G10A, L12V, L24F, F39I, G46A, I84M, V87M, T104L, G106S, T107I
VL: DVVMTQSPLSLPVTPGEPASISCRSSQSILHSNGNTYLEWYLQKPGQSPQLLIYKVSNRFSGVPDRFSGSGSGTDFTLKISRVEAEDVGVYYCVQTSLVPLTFGQGTKLEIK
notes: also called SJ-p2-51
B12 gave a Kd [8] of 0.002 nM.

B13: 20C2-10A IgG1 (antibody, V domains shown)
VH: B1 VH with G10A, L12V, L24F, F39I, G46A, I84M, V87M, T104L, G106S, T107I
VL: B12 VL with V94F, T96G, L98R, V99L, L101V, T102S
notes: also called SJ-p3-33
In the case of B13, the Kd [9] is reported as 7.7 nM.

B14: 20C2-12A IgG1 (antibody, V domains shown)
VH: B1 VH with G10A, L12V, L24F, F39I, G46A, I84M, V87M, T104L, G106S, T107I
VL: B12 VL with V94L, T96S
notes: also called 4P1-32
Binder B14 has a Kd [9] of 0.015 nM.

B15: 20C2-13A IgG1 (antibody, V domains shown)
VH: B1 VH with G10A, L12V, L24F, F39I, G46A, I84M, V87M, T104L, G106S, T107I
VL: B12 VL with V94L, L98N
notes: also called 4p1-20; 4P1-20
With B15 the Kd [9] was 0.764 nM.

B16: 20C2-18A IgG1 (antibody, V domains shown)
VH: B1 VH with G10A, L12V, L24F, F39I, G46A, I84M, V87M, T104L, G106S, T107I
VL: B12 VL with V94M, T96S, L98F
notes: also called SJ-p1-9M
B16 gave a Kd [9] of 0.149 nM.

B17: 20C2-20A IgG1 (antibody, V domains shown)
VH: B1 VH with G10A, L12V, L24F, F39I, G46A, I84M, V87M, T104L, G106S, T107I
VL: B12 VL with V94F, T96G, V99F, L101P, T102V
notes: also called SJ-p3-15
In the case of B17, the Kd [9] is reported as 6.9 nM.

B18: 20C2-23A IgG1 (antibody, V domains shown)
VH: B1 VH with G10A, L12V, L24F, F39I, G46A, I84M, V87M, T104L, G106S, T107I
VL: B12 VL with V94H, T96S, L98K
notes: also called 4P1-40
For B18, the Kd [9] was 0.085 nM and the Kd [8] was 0.066 nM.

B19: 20C2-12A Fab (Fab, V domains shown)
VH: B1 VH with G10A, L12V, L24F, F39I, G46A, I84M, V87M, T104L, G106S, T107I
VL: B1 VL with T7S, Q17E, T96S, T97S, R98L
In the case of B19, the Kd [7] is reported as 238 nM.

B20: 20C2-13A Fab (Fab, V domains shown)
VH: B1 VH with G10A, L12V, L24F, F39I, G46A, I84M, V87M, T104L, G106S, T107I
VL: B1 VL with T7S, Q17E, T97S, R98N
Binder B20 has a Kd [7] of 567 nM.

B21: 20C2-18A Fab (Fab, V domains shown)
VH: B1 VH with G10A, L12V, L24F, F39I, G46A, I84M, V87M, T104L, G106S, T107I
VL: B1 VL with T7S, Q17E, L94M, T96S, T97S, R98F
With B21 the Kd [7] was 85 nM.
